Earlier results, collected in PMC4134939.

Biological target: ubiquitin (Homo sapiens) (UniProt P0CG47)

DNA polymerase iota UBM1, sequence (Q9UNA4 513-557): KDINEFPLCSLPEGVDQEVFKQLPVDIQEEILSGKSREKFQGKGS

- Kd: 130 µM
Substance: DNA polymerase iota UBM1 (from UniProt Q9UNA4)
